In US20110171215A1 (ISIS INNOVATION, published 2011):

B1: Clone 2 anti-PD-1 antibody (antibody, V domains shown)
VH: QVQLQQPGAELVKPGASVKLSCKASGYTFTTYYLYWVRQRPGQGLEWIGGINPSNGGTNFNEKFKSKATLTVDKSSSTAYMQLNSLTSEDSAVYYCTRRDYRYDRGFDYWGQGTSVTV
VL: DIVLTQSPASLAVSLGQRATISCRASKSVSTSGFNYIHWYQQKPGQPPKLLIYLASNLESGVPARFSGSGSGTDFTLNIHPVEDEDAATYYCQHSRELPLTFGAGTKLEIK
notes: The printed VH ends at ...TV
B2: Clone 19 anti-PD-1 antibody (antibody, IgG1, V domains shown)
VH: QVQLQQSGAELVKPGASVKMSCKAFGYTFTTYPIEWMKQNHGKSLEWIGNFHPYNDDTKYNEKFKGKAKLTVEKSSTTVYLELSRLTSDDSAVYYCARENYGSHGGFVYWGQGTLVTV
VL: ENVLTQSPAIMSASPGEKVTMTCRASSSVISSYLHWYQQKSGASPKLWIYSTSNLASGVPDRFSGSGSGTSYSLTISSVEAEDAATYYCQQYNGYPLTFGAGTKLEIK
notes: The printed VH ends at ...TV

Key:
[1] = target: T1, human PD-1 extracellular region with the transmembrane and intracellular regions of murine CD28, expressed on … (human; mouse, UniProt Q15116 25-170; P31041 151-218, limits assumed); assay: flow cytometry on transfected HEK 293T cells
T1 construct: extracellular domain;domain: transmembrane and intracellular regions; also called human PD-1 transfectants
Procedure: (§1) Constructs encoding the human extracellular region of PD-1 with the transmembrane and intracellular regions of murine CD28 were cloned into the bi-cistronic mammalian expression vector pGFP2-n2 from BioSignal Packard Ltd, which also encodes GFP. Mutant constructs varying by one amino acid were prepared using the “drastic” mutagenesis approach (Davis el al. Proc Natl Acad Sci USA. 95, 5490-4 (1998)). Plasmids (2 μg/well) were transfected into HEK-293T cells in 6 well plates using Genejuice transfection reagent (Novagen; 6 μl/well). Mock and no-transfection controls were included with each experiment. Cells were harvested at 18-24 hours and stained with anti-PD1 antibodies or isotype controls at 10 μg/ml in PBS-azide for 1 h at 4° C. Cells were washed with PBS-Azide, pelleted at 1500 rpm/5 min and primary antibodies were labelled with Alexa647-conjugated donkey anti-mouse IgG (5 μg/ml) in PBS-Azide for 30 min at 4° C. Cells were washed as above and resuspended in 200 μl PBS-Azide before being analysed at the flow cytometer. Propidium iodide (5 μg/ml) was added immediately prior to analysis to identify dead cells. GFP-positive (transfected) viable cells were gated and analysed for binding of anti-PD1 antibodies. […]

[2] = target: T2, human PD-1 extracellular region / murine CD28 chimera, mutant R118D, on HEK-293T cells (human; mouse, UniProt Q15116 25-170; P31041 151-218, R118D); assay: flow cytometry on transfected HEK-293T cells
T2 construct: extracellular domain;domain: transmembrane and intracellular regions; Single-residue 'drastic' mutant of m4
Procedure: as §1

[3] = target: T3, human PD-1 extracellular region / murine CD28 chimera, mutant L16R, on HEK-293T cells (human; mouse, UniProt Q15116 25-170; P31041 151-218, L16R); assay: flow cytometry on transfected HEK-293T cells
T3 construct: extracellular domain;domain: transmembrane and intracellular regions; Single-residue 'drastic' mutant of m4; constructs elsewhere are counted on the mature polypeptide
Procedure: as §1

T3 sequence (Q15116 other isoform, or with tags, fused parts or gaps L16R | L16R L16R): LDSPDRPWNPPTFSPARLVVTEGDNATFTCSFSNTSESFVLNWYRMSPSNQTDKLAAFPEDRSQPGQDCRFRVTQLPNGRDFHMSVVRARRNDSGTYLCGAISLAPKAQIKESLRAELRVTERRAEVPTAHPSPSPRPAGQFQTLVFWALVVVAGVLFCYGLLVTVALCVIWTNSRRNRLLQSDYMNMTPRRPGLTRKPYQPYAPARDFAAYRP
T2 sequence (Q15116 other isoform, or with tags, fused parts or gaps R118D | R118D R118D): as the sequence (Q15116 other isoform, or with tags, fused parts or gaps L16R | L16R L16R) above, with R17L, R119D counted along it
T1 sequence (Q15116 other isoform, or with tags, fused parts or gaps limits assumed, change not shown): as the sequence (Q15116 other isoform, or with tags, fused parts or gaps L16R | L16R L16R) above, with R17L counted along it

Row | Binder | binding result [1] | binding result [2] | binding result [3]
1 | B1 | binds | – | –
2 | B2 | – | no binding (tested: 10 µg/ml) | no binding (tested: 10 µg/ml)
